Measured values taken from the supplement of paper PMC10724198.
± gives the standard deviation of the averaged measurements.

System: Saccharomyces cerevisiae
Experiment: protein stability index of tFT-peptide fusion (C-terminal peptide) (PSI (0-1 scale)); higher = more stable (slower turnover)
Details: genetic background: das1 deletion; temperature: 30 C
Experimental: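 MPS profiling in S. cerevisiae of the yeast C-terminome library: the last 12 aa of each annotated ORF are fused to the C-terminus of a sfGFP-mCherry timer, after a GGGS linker. Cells are FACS-sorted into 8 mCherry/sfGFP bins and deep-sequenced. PSI runs from 0 (unstable) to 1 (stable); wild type and das1Δ backgrounds, two technical replicates each.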

| Sequence | protein stability index |
| --- | --- |
| NADDPSYYHYLS [CUL3 C-terminal 12 aa] | 0.7059 ± 0.0024 |
| NASEIYVKRKTG [DDL1 C-terminal 12 aa] | 0.708 ± 0.041 |
| NASIFTVLSYCS [YEL020C-B C-terminal 12 aa] | 0.6702 ± 0.0016 |
| NDDNFDDAQEQQ [SEC2 C-terminal 12 aa] | 0.6977 ± 0.0015 |
| NDIFIPEQEHKQ [HPT1 C-terminal 12 aa] | 0.721 ± 0.011 |
| NELSLRPATERI [YBL100W-A C-terminal 12 aa] | 0.6853 ± 0.0012 |
| NEPEVQPEAAAN [PUS1 C-terminal 12 aa] | 0.679 ± 0.0086 |
| NESLNDYFTGIK [YBP1 C-terminal 12 aa] | 0.706 ± 0.0084 |
| NFAMLGLGPNWE [YUH1 C-terminal 12 aa] | 0.722 ± 0.0065 |
| NFWNTGSAIFMQ [YHR069C-A C-terminal 12 aa] | 0.7347 ± 0.0017 |
| NGMWQKPEPGVS [YIL067C C-terminal 12 aa] | 0.691 ± 0.012 |
| NGRYVDTDFDSM [LCB5 C-terminal 12 aa] | 0.707 ± 0.02 |
| NGTMKRGGVKNK [HPC2 C-terminal 12 aa] | 0.697 ± 0.02 |
| NHPSNDSGNEKN [HCM1 C-terminal 12 aa] | 0.667 ± 0.025 |
| NHSSSGNKHDEL [MPD1 C-terminal 12 aa] | 0.657 ± 0.0067 |
| NIILNWIYPYQR [COX18 C-terminal 12 aa] | 0.703 ± 0.033 |
| NILFVMKEGRIY [YJL213W C-terminal 12 aa] | 0.681 ± 0.016 |
| NIREARYEQQLK [CTF4 C-terminal 12 aa] | 0.733 ± 0.035 |
| NIYNPMDEEENQ [TFB5 C-terminal 12 aa] | 0.718 ± 0.025 |
| NLEATNNKKPPL [DAD4 C-terminal 12 aa] | 0.6963 ± 0.0043 |
| NLMEMFTKRDRS [ROD1 C-terminal 12 aa] | 0.72 ± 0.022 |

| Sequence | protein stability index |
| --- | --- |
| NLNQHVKTHASL [COM2 C-terminal 12 aa] | 0.6752 ± 0.0042 |
| NMRFFYRLYVKN [BMT6 C-terminal 12 aa] | 0.489 ± 0.015 |
| NNFCALYNLSNP [RPN14 C-terminal 12 aa] | 0.714 ± 0.022 |
| NNTFLDVQAKSN [IMP1 C-terminal 12 aa] | 0.6944 ± 0.0068 |
| NRFGVLPDDVEE [ECM1 C-terminal 12 aa] | 0.714 ± 0.024 |
| NSAAFLLMSLKS [STB3 C-terminal 12 aa] | 0.674 ± 0.0086 |
| NSAFSSASVTKP [YFR057W C-terminal 12 aa] | 0.711 ± 0.0094 |
| NSALSSTSTLAI [RIB1 C-terminal 12 aa] | 0.6419 ± 0.0051 |
| NSLTQKYGTNNV [AAD15 C-terminal 12 aa] | 0.698 ± 0.016 |
| NSSGEFQLESLF [MRI1 C-terminal 12 aa] | 0.707 ± 0.023 |
| NSVDWIYSWGKN [MIC12 C-terminal 12 aa] | 0.716 ± 0.03 |
| NTAGQKPTEYHY [APA2 C-terminal 12 aa] | 0.7199 ± 0.0016 |
| NTEQAYSQPFRY [NVJ1 C-terminal 12 aa] | 0.702 ± 0.021 |
| NTESSDKGAKIQ [SIN3 C-terminal 12 aa] | 0.701 ± 0.035 |
| NTGFDPHLEDGM [TBF1 C-terminal 12 aa] | 0.708 ± 0.032 |
| NTKHYNDTLLKQ [PHO11 C-terminal 12 aa] | 0.718 ± 0.0081 |
| NTTRYNASLVNQ [DIA3 C-terminal 12 aa] | 0.741 ± 0.031 |
| NVIIQDKTKKTQ [MCD4 C-terminal 12 aa] | 0.733 ± 0.028 |
| NVKSSTQEKDSK [SGN1 C-terminal 12 aa] | 0.706 ± 0.014 |
| NYEDLATTQAAS [BRN1 C-terminal 12 aa] | 0.722 ± 0.011 |
| NYQKNEPVEFLE [MIN9 C-terminal 12 aa] | 0.711 ± 0.0097 |

| Sequence | protein stability index |
| --- | --- |
| PDVLRKLSHQNV [PNS1 C-terminal 12 aa] | 0.713 ± 0.0075 |
| PENGSLFEFDDN [SNU66 C-terminal 12 aa] | 0.6962 ± 0.005 |
| PFALPSNDKVFF [ATO2 C-terminal 12 aa] | 0.698 ± 0.027 |
| PFIFKTLEEQGL [CCP1 C-terminal 12 aa] | 0.743 ± 0.06 |
| PFLEKLTLSGLL [CDC45 C-terminal 12 aa] | 0.714 ± 0.0059 |
| PFPQKHRDNHLV [YOR053W C-terminal 12 aa] | 0.701 ± 0.025 |
| PGPISFLPVIPI [YLR402W C-terminal 12 aa] | 0.7092 ± 0.0061 |
| PHEAALPKPSFV [EDC2 C-terminal 12 aa] | 0.7069 ± 0.0042 |
| PHSQNEILQYYL [NAT1 C-terminal 12 aa] | 0.705 ± 0.0095 |
| PHYKPRDGSQVE [SPT4 C-terminal 12 aa] | 0.69 ± 0.011 |
| PICIVGNFIPLS [RDS2 C-terminal 12 aa] | 0.689 ± 0.024 |
| PICKLLEEEERG [ALG11 C-terminal 12 aa] | 0.7 ± 0.011 |
| PINDRKYPNQCH [SPR1 C-terminal 12 aa] | 0.715 ± 0.028 |
| PIQQSIAHINPP [LDS2 C-terminal 12 aa] | 0.718 ± 0.0075 |
| PKDLTSLLEWKE [CLA4 C-terminal 12 aa] | 0.7005 ± 0.006 |
| PLSKMEDQVFVF [CBR1 C-terminal 12 aa] | 0.663 ± 0.036 |
| PQFKYRADFLII [APE3 C-terminal 12 aa] | 0.664 ± 0.011 |
| PQRTKIQAFNTL [MRP1 C-terminal 12 aa] | 0.70194 ± 0.0001 |
| PRGQDTEDHILE [PIF1 C-terminal 12 aa] | 0.725 ± 0.02 |
| PRLKAKKKVTKP [TFB4 C-terminal 12 aa] | 0.6873 ± 0.003 |
| PSENFATKAKLP [YDR187C C-terminal 12 aa] | 0.7507 ± 0.0029 |

| Sequence | protein stability index |
| --- | --- |
| PSIQHDYTMEGW [ATG3 C-terminal 12 aa] | 0.72275 ± 0.00032 |
| PSPYYVSEVPVS [Q0010 C-terminal 12 aa] | 0.6371 ± 0.0047 |
| PSSEEDILHDEL [LHS1 C-terminal 12 aa] | 0.68 ± 0.046 |
| PSVSRKTPDYFL [PPH21 C-terminal 12 aa] | 0.701 ± 0.053 |
| PSYEMRYNKNER [YBL065W C-terminal 12 aa] | 0.7137 ± 0.0027 |
| PTQPTVSNKKNN [GPI14 C-terminal 12 aa] | 0.7252 ± 0.0055 |
| PVHLQTVGLVDC [PIR5 C-terminal 12 aa] | 0.623 ± 0.032 |
| PYKSTELRSVAN [YDL187C C-terminal 12 aa] | 0.671 ± 0.04 |
| QAKFFYQDLMSL [YHL046W-A C-terminal 12 aa] | 0.72 ± 0.038 |
| QAQLTAATNAKQ [PDC5 C-terminal 12 aa] | 0.6916 ± 0.0017 |
| QDEDEDEDIEMQ [RAD3 C-terminal 12 aa] | 0.6935 ± 0.0052 |
| QDYVKDRHHGLK [NUP157 C-terminal 12 aa] | 0.698 ± 0.01 |
| QEPVIDPGTVVV [MRPL3 C-terminal 12 aa] | 0.6775 ± 0.0024 |
| QEQQNLRQKQPN [YBL029C-A C-terminal 12 aa] | 0.704 ± 0.01 |
| QESTLETTQKED [AFI1 C-terminal 12 aa] | 0.703 ± 0.032 |
| QETAISVAKLFK [RPT6 C-terminal 12 aa] | 0.684 ± 0.007 |
| QFAQDTLKNFVQ [SAM35 C-terminal 12 aa] | 0.733 ± 0.022 |
| QGRQGFNGGSRW [YNL208W C-terminal 12 aa] | 0.706 ± 0.025 |
| QKARDFSRSVVH [ARO2 C-terminal 12 aa] | 0.696 ± 0.00098 |
